Data as given in PMC4464401, “Biochemical properties and yields of diverse bacterial laccase-like multicopper oxidases expressed in Escherichia coli” (Scientific Reports, 2015).

Legend:
Experiment in all cases: spectrophotometric oxidation, Michaelis-Menten fit with uncompetitive substrate inhibition
B. coagulans LMCO (CotA) = biological target: T1, B. coagulans LMCO (CotA) (Heyndrickxia coagulans, UniProt A0AAN0WB15); type: biochemical; conditions: 30 °C
T1 construct: gene SB48_HM08orf01352
T1 sequence (A0AAN0WB15 1-522): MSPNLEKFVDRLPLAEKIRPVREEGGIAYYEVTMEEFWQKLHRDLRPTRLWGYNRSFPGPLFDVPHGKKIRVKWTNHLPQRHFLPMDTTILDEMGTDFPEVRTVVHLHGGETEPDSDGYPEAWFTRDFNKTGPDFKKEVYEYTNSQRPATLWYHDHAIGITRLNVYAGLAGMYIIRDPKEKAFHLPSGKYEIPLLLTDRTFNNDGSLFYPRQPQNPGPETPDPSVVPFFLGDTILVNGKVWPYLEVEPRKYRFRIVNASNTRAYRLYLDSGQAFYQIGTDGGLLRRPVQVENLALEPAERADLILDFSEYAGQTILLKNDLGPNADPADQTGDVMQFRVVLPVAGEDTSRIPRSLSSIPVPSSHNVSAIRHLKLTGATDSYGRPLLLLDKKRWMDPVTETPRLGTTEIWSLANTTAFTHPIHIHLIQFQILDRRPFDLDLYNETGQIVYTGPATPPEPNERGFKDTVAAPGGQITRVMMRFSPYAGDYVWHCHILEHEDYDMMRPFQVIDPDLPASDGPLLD
Text: spectrophotometric oxidation, Michaelis-Menten fit with uncompetitive substrate inhibition on B. coagulans LMCO (CotA)

[1] = substrate: CCn1c(=NN=c2sc3cc(S(=O)(=O)O)ccc3n2CC)sc2cc(S(=O)(=O)O)ccc21; type: biochemical, Shouchella clausii; conditions: pH 4.0, McIlvaine buffer, 30 °C, pH 4.0
Text: (§1) spectrophotometric oxidation, Michaelis-Menten fit with uncompetitive substrate inhibition on B. clausii LMCO (CotA)

[2] = substrate: COc1cccc(OC)c1O; type: biochemical, Shouchella clausii; conditions: pH 8.0, McIlvaine buffer, 30 °C, pH 8.0
Text: as §1

Molecule: CCn1c(=NN=c2sc3cc(S(=O)(=O)O)ccc3n2CC)sc2cc(S(=O)(=O)O)ccc21 [ABTS, 2′-azino-bis(3-ethylbenzthiazoline-6-sulphonic acid)]
- B. coagulans (B. coagulans LMCO (CotA); pH 4.0, McIlvaine buffer): 0.94 ± 0.11 mM

Molecule: COc1cccc(OC)c1O [2,6-DMP, 2,6-dimethoxyphenol]
- B. coagulans (B. coagulans LMCO (CotA); pH 7.5, McIlvaine buffer): 36 ± 9.8 mM

B1: B. clausii LMCO (CotA) (Shouchella clausii KSM-K16) (protein)
chain: MELEKFVDPMPIMKTAIPKKTSKDGDYYEIEMKEFSQKLHRDLNPTRLWGYDGQFPGPTIEVMRGKPARIKWMNNLPDTHFLPIDRSIHHVAHEPEVRTVVHLHGSETTPASDGYPEAWFTKDFAEVGSFFEQETYEYPNDQRAATLWYHDHAMGITRLNVYAGLSGLYIIRDPREEQLNLPKGEFDIPLLIQDRSFNDDGSLFYPAQPANPAPNLPNPSVLPFFVGDTILVNGKVWPYLQVEPRKYRFRILNGSNSRSYQLALDSEAPFYQIASDGGLLRRTVSLQAFDIRPAERIEAIIDFSKFEGQTITLKNNASTDATADVMQFQVVLPLSGEDTSIIPQNLSYIPSLQQNDVKRIRNLKISGTTDEYGRPLLLLNNKLWSDPVEEKPCLGTTEIWSFVNVTNVPHPMHIHLVQFQLLDHRAFNVELYNENGQIELVGPTIPPKINERGWKDTITAPAGQITRVIARFAPFSGYYVWHCHILEHEDYDMMRPFVVIDPKTEKERR
- Km [1]: 0.132 ± 0.011 mM
- kcat [1]: 90 ± 2.3 s⁻¹
- Km [2]: 8.535 ± 2.394 mM
- kcat [2]: 65 ± 15.2 s⁻¹
